Consider 12 molecules from patent US11827701B2, “IL-6 binding molecules” (argenx BV, priority 2012, dated 2023).

Changes are numbered by the printed parent chain. Values joined by “and” are separate entries in the source; they are usually repeats but may differ in a detail not shown here. Equal entries are not always repeated.

One assay addresses T1, cynomolgus monkey IL-6 (Macaca fascicularis, UniProt P79341).
T1 construct: His
Description: Surface plasmon resonance (Biacore), cynomolgus monkey IL-6. The assay is classed as binding. Conditions: for KA / ka / kd: cy/cyno, periplasmic fractions. The method, then:
(§1) VL chain shuffling was used to improve the affinity of the Fabs 17F10, 18C7, 18C9, 18C11, 20A4, 29B11, 16D2 and 28A6. In this method, the heavy chain of these clones (as a VHCH1 fragment) was reintroduced into the primary phagemid-light chain library (see Example 1). Affinity selections were performed to select for chain shuffled Fabs with an improved affinity for IL-6. The binding kinetics of chain shuffled Fabs were evaluated by surface plasmon resonance (Biacore) using both bacterially and eukaryotically produced human IL-6, and cynomolgus monkey IL-6 (Tables 5-7). The VH and VL amino acid sequences of exemplary IL-6-specific Fabs selected by the VL chain shuffling method are set forth in Table 14 below.
(In general: SPR reads the build-up and loss of mass on a sensor chip optically.)

Assay [1] deals with T2, bacterially produced human IL-6 (Homo sapiens, UniProt P05231).
T2 construct: His
Description: Surface plasmon resonance (Biacore), bacterially produced human IL-6 coated on CM5 chip. The assay is classed as binding. To be noted: for KA / ka / kd: bact, periplasmic fractions. As to the method:
(§2) The binding kinetics of IL-6-specific Fabs that were able to cross-compete with the B-E8 antibody was assessed using surface plasmon resonance (Biacore). Specifically, biotinylated (prokaryotic) IL-6 was captured on a streptavidin biacore sensor chip (CM5-SA) and different concentrations of purified Fabs were injected during 3 minutes following by a 5 minute wash with buffer. From the washing phase the off-rate (kd) was determined, while from the injection phase the on-rate (ka) was calculated using the concentration and off-rate as parameters. […] The binding kinetics of antagonistic purified Fabs (Table 3) and periplasmic fractions of Fab-expressing bacteria (Table 4) were also evaluated by surface plasmon resonance (Biacore) using both bacterially and eukaryotically produced human IL-6 directly coated on a CM5 chip. The Fabs tested had off-rates between 6×10^−4 and 2×10^−5 s^−1.
as §1
(§3) VH chain shuffling was also used to improve the affinity of the Fab 24D10. In this method, the light chain of 24D10 was reintroduced into the primary phagemid-heavy chain library (see Example 1) and selected using an off-rate assay. In this type of selection, the phage were allowed to bind to antigen on a substrate for 1.5 to 2 hours. At round 2, after 15 washes with PBS-Tween, an additional wash was performed with the presence of excess soluble IL-6. […] This procedure avoids re-binding of such phage to the coated target. […] The binding kinetics of chain shuffled Fabs and the benchmark antibodies, BE8 and GL18, were evaluated by surface plasmon resonance (Biacore) using both bacterially and eukaryotically produced human IL-6 (Tables 8 and 9). The VH and VL amino acid sequences of exemplary IL-6-specific Fabs selected by the VH chain shuffling method are set forth in Table 14 below. […]

Assay [2] concerns the target biotinylated (prokaryotic) IL-6 (Homo sapiens, UniProt P05231). Description: Surface plasmon resonance (Biacore), biotinylated IL-6 captured on streptavidin sensor chip. Type of assay: binding. Conditions: purified Fab. As to the method: as §2
In assay [3] the target is T3, eukaryotically produced human IL-6 (Homo sapiens, UniProt P05231).
T3 construct: purchased Humanzyme HZ-1044; host or cells: Human Embryonic kidney cells
Description: Surface plasmon resonance (Biacore), eukaryotically produced human IL-6 coated on CM5 chip. Type of assay: binding. To be noted: for KA / ka / kd: euk, periplasmic fractions. The method, then:
as §2, §1, §3

Assay [4] addresses T4, human IL-6 (Homo sapiens, UniProt P05231).
T4 construct: host or cells: IL-6 added from outside to murine 7TD1 hybridoma cells
The assay can be described thus: IL-6 neutralizing bioassay, 7TD1 cell proliferation. Conditions: relative to 68F2. Type of assay: cell-based. The method, then: The in vitro efficacy of clones 133E5, 133A9, 133H2, 111B1, 104C1, 129D3, 68F2, 61H7, were also determined using a cell-based neutralizing bioassay using the 7TD1 cell line, essentially as described in Van Snick et al. PNAS; 83, :9679 (1986), which is hereby incorporated by reference in its entirety. 7TD1 cells are a murine hybridoma cell line formed by fusion of the mouse myeloma cell line Sp2/0-Ag14 with spleen cells from a C57BL/6 mouse immunized with Escherichia coli lipopolysaccharides three days before fusion. The 7TD1 cell line is dependent on IL-6 for its growth and IL-6 withdrawal leads to cell death by apoptosis.
Briefly, 7TD1 cells (7.10E3) were incubated for 2-4 h in RPMI1640 medium+10% FCS before addition of IL-6 (75 pg/ml final concentration) in microtiter plates (200 ul final volume). The cells were incubated 3 days at 37C, before washing with PBS and addition of 60 ul of substrate solution (p-nitrophenyl-N-acetyl-β-D-glucosaminide (Sigma N-9376); 7.5 mM substrate in 0.05 M NaCitrate pH 5; 0.25 vol % triton X-100) for 4 h. The enzymatic reaction was stopped with 90 ul of stop solution (100 mM glycine+10 mM EDTA pH 10.4) and OD at 405 nm measured.
The VH and VL of the germlined versions of 68F2 were recloned in pUPE Heavy Chain and Light Chain expression vectors, respectively, for transient expression of full-length IgG1 antibodies. After transient expression in HEK293E cells, IgG1 antibodies were purified with protein A and quantified by measurement of OD280. Table 19 below summarizes the production levels of the germlined derivatives together with the levels of the 68F2 parental antibody. Potencies (in pM) were also measured in a 7TD1 based proliferation assay for each antibody.

For assay [5], the target named is T4, human IL-6. Description: IL-6 neutralizing bioassay, B9 cell proliferation ([3H]thymidine). The assay is classed as cell-based. Conditions: B9 cells; relative to 68F2 average IC50. The method, then:
The in vitro efficacy of clones 129D3, 68F2, 61H7, 133A9, 133H2, 133E5 and 132E7 were determined using a cell-based neutralizing bioassay using the B9 cell line, essentially as described in Helle et al. 1988, Eur. J. Immunol 18; 1535-1540. B9 cells are derived from the murine B cell hybridoma cell line B13.29, which require IL-6 for survival and proliferation and respond to very low concentrations of human IL-6. […] B9 cells were seeded in IL-6-free medium at 5000 cells/200 microl in flat-bottom wells in the presence of IL-6, with and without antibodies. Proliferation was measured by a [3H]thymidine pulse at 64-72 h.

T1 sequence (P79341 28-212): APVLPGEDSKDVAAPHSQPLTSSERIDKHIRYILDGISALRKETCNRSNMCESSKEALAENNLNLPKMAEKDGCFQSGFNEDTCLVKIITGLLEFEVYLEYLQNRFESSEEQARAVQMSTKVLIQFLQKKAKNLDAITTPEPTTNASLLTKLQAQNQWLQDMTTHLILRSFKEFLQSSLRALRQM
T3 sequence (P05231 30-212): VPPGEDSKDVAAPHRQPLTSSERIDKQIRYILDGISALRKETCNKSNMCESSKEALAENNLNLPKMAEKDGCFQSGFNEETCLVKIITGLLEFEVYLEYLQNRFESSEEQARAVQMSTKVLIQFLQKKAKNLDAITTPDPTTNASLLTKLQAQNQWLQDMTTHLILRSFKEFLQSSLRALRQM
T2 sequence (P05231 30-212): as above
T4 sequence (P05231 30-212): as above
Sequence of biotinylated (prokaryotic) IL-6 (P05231 30-212): as above

B1: 18C7: antagonistic IL-6-specific Fab clone from immunized llama (antibody, listed as Lama glama, V domains shown)
VH: EVQLVESGPGLVKPSQTLSLTCTVSGGSITASFDAWSWIRQPPGKGLEWMGVIAYDGSTYYSPSLKSRTSISRDTSKNQFSLQLSSVTPEDTAVYYCARKSSWLIGYGMDYWGKGTLVTVSS
VL: QAGLTQPSALSVTLGQTAKITCQGGSLGSSYAHWYQQKPGQAPVLVIYDDDSRPSGIPERFSGSSSGGRATLTISGAQAEDEGDYYCQSADSSGNAAVFGGGTHLTVLG
As for B1, in the assay with cynomolgus monkey IL-6 (purified chain-shuffled Fabs), the “Koff HIS-cyIL-6” value is 0.00063 s⁻¹ and 0.00069 s⁻¹. In assay [1] (purified chain-shuffled Fabs), the “Koff HIS-huIL-6” value amounted to 0.0011 s⁻¹. In assay [2], this molecule showed a KA of 5.7e+07 M⁻¹, an Rmax of 43.9 RU, a ka of 105000 M⁻¹ s⁻¹ and a kd of 0.00185 s⁻¹. The “Koff eukIL-6” value in assay [3] (purified chain-shuffled Fabs) was 0.001 s⁻¹ and 0.00082 s⁻¹.

B2: 129D3 (17.06) (antibody, V domains shown)
VH: EVQLQESGPGLVKPSQTLSLTCTVSGGSITSRYYAWSWIRQPPGKGLEWIGVIDYDGDTYYSPSLKSRVSISWDTSKNQFSLKLSSVTPADTAVYYCARDPDVVTGFHYDYWGQGTMVTVSS
VL: QSALTQPPSVSGTPGQSVTISCAGANNDIGTYAYVSWYQQLPGTAPKLMIYKVTTRASGIPDRFSGSKSGNTASLTISGLQAEDEADYYCASYRNFNNAVFGTGTKLTVL
For B2, in the assay with human IL-6 [4] (Exp 22.06 (7TD1)), the “Rel. Potency” value is 1.02.

B3: 68F2 (12.9) (antibody, V domains shown)
VH: B2 VH with S31T, I50M, V69T, K83Q, A90E, M117Q
VL: QSALTQPPLVSGTPGQTVTISCAGANNDIGTYAYVSWYQQLPGTAPKLLIYKVTTRASGIPSRFSGSKSGNTASLTISGLQSEDEADYYCASYRNFNNAVFGRGTHLTVLG
For the molecule B3, the Rel. Potency with human IL-6 [5] turned out to be 0.8.

B4: 68F2 (#12.9) (antibody, V domains shown)
VH: B2 VH with S31T, I50M, V69T, K83Q, A90E, M117Q
VL: B3 VL
B4: the “Rel. Potency” value with human IL-6 [4] (Exp 7.07 (7TD1)) is 0.93; with human IL-6 [4] (Exp 29.06 (7TD1)) it was 1.08.

B5: 68F2 (Large batch) (antibody, V domains shown)
VH: B2 VH with S31T, I50M, V69T, K83Q, A90E, M117Q
VL: B3 VL
On to B5, for which the “Rel. Potency” value with human IL-6 [4] (Exp 29.06 (7TD1)) came out at 0.43.

B6: 68F2 (A8.10) (antibody, V domains shown)
VH: B2 VH with S31T, I50M, V69T, K83Q, A90E, M117Q
VL: B3 VL
Turning to B6, the Rel. Potency with human IL-6 [5] came out at 1.3.

B7: 129F2 (17.06) (antibody, V domains shown)
VH: B2 VH with S70T, P89A, A90E
VL: B2 VL with S17T, A82S, T103G
With B7, in the assay with human IL-6 [4] (Exp 22.06 (7TD1)), the “Rel. Potency” value turned out to be 1.14.

B8: 127E2 (17.06) (antibody, V domains shown)
VH: B2 VH with S31T, S70T, W73V, K83Q, P89A, A90E, M117Q
VL: B2 VL with T13S, S17T, L41P, M49L, I60V, T103G, K106H
As for B8, the “Rel. Potency” value in the assay with human IL-6 [4] (Exp 29.06 (7TD1)) came to 0.37.

B9: 127E2 (24.06) (antibody, V domains shown)
VH: B2 VH with S31T, S70T, W73V, K83Q, P89A, A90E, M117Q
VL: B2 VL with T13S, S17T, L41P, M49L, I60V, T103G, K106H
For B9, the “Rel. Potency” value with human IL-6 [4] (Exp 22.06 (7TD1)) worked out at 0.58.

B10: 128G3 (17.06) (antibody, V domains shown)
VH: B2 VH with S31T, V69T, S70T, W73V, A90E
VL: B2 VL with T13A, S17T, M49L, I60V, T76A, T103G, K106H
On to B10, for which the results for the “Rel. Potency” value with human IL-6 [4] (Exp 22.06 (7TD1)) and in the assay with human IL-6 [4] (Exp 29.06 (7TD1)) were 0.60 and 0.52, respectively.

B11: 29B11: antagonistic IL-6-specific Fab clone from immunized llama (antibody, listed as Lama glama, V domains shown)
VH: EVQLVESGGGLVQPGGSLRLSCAASGFTFSSYAMSWVRQAPGKGLEWVSRISSGGISTYYADSVKGRFTISRDNAKNTLYLQMNSLKPEDTAVYYCVRYAWGVQWAFDFWGQGTQVTVSS
VL: QSVLTQPPSVSGSPGQTVTISCAGTSEDVGYGNYVSWYQQLPGMAPKLLIYDVNKRASGIADRFSGSKSGNTASLTISGLQSEDEADYYCASYRRTIDNIFGGGTHLTVLG
In the assay with cynomolgus monkey IL-6 (29B11 chain shuffled), B11 gave a KA of 1.51e+08 M⁻¹, a ka of 113000 M⁻¹ s⁻¹ and a kd of 0.000746 s⁻¹. For the same molecule, in assay [1] (29B11 chain shuffled), the KA was 1.91e+09 M⁻¹, the ka was determined as 251000 M⁻¹ s⁻¹ and the kd came out at 0.000131 s⁻¹. In assay [2], this molecule showed a KA of 4.36e+07 M⁻¹, an Rmax of 23.3 RU, a ka of 130000 M⁻¹ s⁻¹ and a kd of 0.00298 s⁻¹. Further, in assay [3] (29B11 chain shuffled), the KA is 1.83e+09 M⁻¹, the ka turned out to be 187000 M⁻¹ s⁻¹ and the kd was determined as 0.000102 s⁻¹.

B12: 48H1g2, R4: 28A6 chain-shuffled Fab, periplasmic fraction (antibody, V domains shown)
VH: QVQLVESGGGLVQPGGSLRLSCAASGFTFSNYYMTWVRQAPGKGLEWVSSIYSFSGDTAYADSVKGRFTISRDNAKNTLYLQMNSLKSEDTAVYYCTRNLGGVVVTTNGYDYWGQGTQVTVSS
VL: DVVMTQSPSSLPTSLGDSVTITCQASQSISDELSWYQQKPGQTPKLLIYGASKLQTGVPSRFSGSGSGTSFTLTISGLEAEDLATYYCLQGYSWPFMFGQGTKVELK
In the assay with cynomolgus monkey IL-6 (28A6 chain-shuffled), B12 registered a KA of 1.18e+09 M⁻¹, a ka of 112000 M⁻¹ s⁻¹ and a kd of 9.46e-05 s⁻¹. Further, in assay [1] (28A6 chain-shuffled), the KA was determined as 2.93e+09 M⁻¹, the ka came to 206000 M⁻¹ s⁻¹ and the kd worked out at 7.04e-05 s⁻¹. Also, in assay [3] (28A6 chain-shuffled), the KA was found to be 1.56e+09 M⁻¹, the ka was determined as 106000 M⁻¹ s⁻¹ and the kd was 6.8e-05 s⁻¹.
